Data: patent US20220041658A1 (PROTAGONIST THERAPEUTICS, published 2022)
Positions of bridges follow the written chain, without caps; N, C: chain ends. Non-standard residues stand in square brackets, D forms with d. Trp(7-Me) = Cc1cccc2c(C[C@H](N)C(=O)O)c[nH]c12; 2Nal = N[C@@H](Cc1ccc2ccccc2c1)C(=O)O; AEF = NCCOc1ccc(C[C@H](N)C(=O)O)cc1; Cit = NC(=O)NCCC[C@H](N)C(=O)O; Pen = CC(C)(S)[C@H](N)C(=O)O; αMeK = C[C@](N)(CCCCN)C(=O)O; βAla = NCCC(=O)O

T1: interleukin-23 receptor (IL-23R) (human, UniProt Q5VWK5 24-629)
T1 sequence (looked up): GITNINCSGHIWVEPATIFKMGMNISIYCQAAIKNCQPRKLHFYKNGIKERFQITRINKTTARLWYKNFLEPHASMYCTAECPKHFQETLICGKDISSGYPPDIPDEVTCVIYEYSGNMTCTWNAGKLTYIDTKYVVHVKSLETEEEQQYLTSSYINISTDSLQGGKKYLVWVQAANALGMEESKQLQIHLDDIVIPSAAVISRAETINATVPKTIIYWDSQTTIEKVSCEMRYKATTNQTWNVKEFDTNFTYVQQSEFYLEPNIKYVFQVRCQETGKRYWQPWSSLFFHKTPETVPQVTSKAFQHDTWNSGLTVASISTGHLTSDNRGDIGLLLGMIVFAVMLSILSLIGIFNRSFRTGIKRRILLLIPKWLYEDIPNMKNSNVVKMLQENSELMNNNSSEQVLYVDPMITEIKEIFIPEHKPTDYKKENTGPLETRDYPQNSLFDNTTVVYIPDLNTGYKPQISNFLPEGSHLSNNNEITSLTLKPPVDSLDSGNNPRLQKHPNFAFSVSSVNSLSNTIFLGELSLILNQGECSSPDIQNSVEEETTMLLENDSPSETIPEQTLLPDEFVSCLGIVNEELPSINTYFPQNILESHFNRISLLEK

B1: Peptide of SEQ ID NO: 246 (peptide)
peptide: XNTXKXXXXKNX
modifications: Ac-[Pen]-NT-[W(7-Me)]-[Lys(Ac)]-[Pen]-Phe[4-(2-aminoethoxy)]-[2-Nal]-[a-MeLys]-[Lys(Ac)]-N-[NMeArg]-NH2; Pen-Pen disulfide
B2: Peptide of SEQ ID NO: 271 (peptide)
peptide: XNTXKXXXXKSX
modifications: Ac-[Pen]-N-T-[W(7-Me)]-[Lys(Ac)]-[Pen]-Phe[4-(2-aminoethoxy)]-[2-Nal]-[a-MeLys]-[Lys(Ac)]-S-[bA]-NH2; Pen-Pen disulfide
B3: Peptide of SEQ ID NO: 266 (peptide)
peptide: Ac-[Pen]NT[Trp(7-Me)][Cit][Pen][AEF][2Nal][αMeK]K(Ac)NY-NH2
modifications: disulfide 1-6
SMILES: CC(=O)NCCCC[C@H](NC(=O)[C@](C)(CCCCN)NC(=O)[C@H](Cc1ccc2ccccc2c1)NC(=O)[C@H](Cc1ccc(OCCN)cc1)NC(=O)[C@H]1NC(=O)[C@H](CCCNC(N)=O)NC(=O)[C@H](Cc2c[nH]c3c(C)cccc23)NC(=O)[C@H]([C@@H](C)O)NC(=O)[C@H](CC(N)=O)NC(=O)[C@@H](NC(C)=O)C(C)(C)SSC1(C)C)C(=O)N[C@@H](CC(N)=O)C(=O)N[C@@H](Cc1ccc(O)cc1)C(N)=O
B4: Peptide of SEQ ID NO: 275 (peptide)
peptide: XNTXQXXXXKNX
modifications: Ac-[Pen]-N-T-[W(7-Me)]-Q-[Pen]-Phe[4-(2-aminoethoxy)]-[2-Nal]-[Spiral_Pip]-[Lys(Ac)]-N-[bA]-NH2; Pen-Pen disulfide
B5: Peptide of SEQ ID NO: 274 (peptide)
peptide: XNTXQXXXXKNX
modifications: Ac-[Pen]-N-T-[W(7-Me)]-Q-[Pen]-Phe[4-(2-aminoethoxy)]-[2-Nal]-[Achc]-[Lys(Ac)]-N-[bA]-NH2; Pen-Pen disulfide
B6: Peptide of SEQ ID NO: 277 (peptide)
peptide: XNTXQXXXXKNX
modifications: Ac-[Pen]-N-T-[W(7-Me)]-Q-[Pen]-Phe[4-(2-aminoethoxy)]-[2-Nal]-[Acbc]-[Lys(Ac)]-N-[bA]-NH2; Pen-Pen disulfide
B7: Peptide of SEQ ID NO: 255 (peptide)
peptide: XNTXKXXXXKNI
modifications: Ac-[Pen]-NT-[W(7-Me)]-[Lys(Ac)]-[Pen]-Phe[4-(2-aminoethoxy)]-[2-Nal]-[a-MeLys]-[Lys(Ac)]-N-I-NH2; Pen-Pen disulfide
B8: Peptide of SEQ ID NO: 267 (peptide)
peptide: XNTXQXXXXKNX
modifications: Ac-[Pen]-NT-[W(7-Me)]-Q-[Pen]-Phe[4-(2-aminoethoxy)]-[2-Nal]-[a-MeLys]-[Lys(Ac)]-N-[bA]-NH2; Pen-Pen disulfide
B9: Peptide of SEQ ID NO: 262 (peptide)
peptide: Ac-[Pen]NT[Trp(7-Me)][Cit][Pen][AEF][2Nal][αMeK]K(Ac)NT-NH2
modifications: disulfide 1-6
SMILES: CC(=O)NCCCC[C@H](NC(=O)[C@](C)(CCCCN)NC(=O)[C@H](Cc1ccc2ccccc2c1)NC(=O)[C@H](Cc1ccc(OCCN)cc1)NC(=O)[C@H]1NC(=O)[C@H](CCCNC(N)=O)NC(=O)[C@H](Cc2c[nH]c3c(C)cccc23)NC(=O)[C@H]([C@@H](C)O)NC(=O)[C@H](CC(N)=O)NC(=O)[C@@H](NC(C)=O)C(C)(C)SSC1(C)C)C(=O)N[C@@H](CC(N)=O)C(=O)N[C@H](C(N)=O)[C@@H](C)O
B10: Peptide of SEQ ID NO: 249 (peptide)
peptide: XNTXKXXXXKNX
modifications: Ac-[Pen]-NT-[W(7-Me)]-[Lys(Ac)]-[Pen]-Phe[4-(2-aminoethoxy)]-[2-Nal]-[a-MeLys]-[Lys(Ac)]-N-[Cit]-NH2; Pen-Pen disulfide
B11: Peptide of SEQ ID NO: 278 (peptide)
peptide: XNTXQXXXXKNX
modifications: Ac-[Pen]-N-T-[W(7-Me)]-Q-[Pen]-Phe[4-(2-aminoethoxy)]-[2-Nal]-[a-MeOrn]-[Lys(Ac)]-N-[bA]-NH2; Pen-Pen disulfide
B12: Peptide of SEQ ID NO: 254 (peptide)
peptide: XNTXKXXXXKNP
modifications: Ac-[Pen]-NT-[W(7-Me)]-[Lys(Ac)]-[Pen]-Phe[4-(2-aminoethoxy)]-[2-Nal]-[a-MeLys]-[Lys(Ac)]-N-[(D)Pro]-NH2; Pen-Pen disulfide
B13: Peptide of SEQ ID NO: 253 (peptide)
peptide: XNTXKXXXXKNP
modifications: Ac-[Pen]-NT-[W(7-Me)]-[Lys(Ac)]-[Pen]-Phe[4-(2-aminoethoxy)]-[2-Nal]-[a-MeLys]-[Lys(Ac)]-N-P-NH2; Pen-Pen disulfide
B14: Peptide of SEQ ID NO: 272 (peptide)
peptide: XNTXKXXXXKHX
modifications: Ac-[Pen]-N-T-[W(7-Me)]-[Lys(Ac)]-[Pen]-Phe[4-(2-aminoethoxy)]-[2-Nal]-[a-MeLys]-[Lys(Ac)]-H-[bA]-NH2; Pen-Pen disulfide
B15: Peptide of SEQ ID NO: 263 (peptide)
peptide: Ac-[Pen]NT[Trp(7-Me)][Cit][Pen][AEF][2Nal][αMeK]K(Ac)N[dT]-NH2
modifications: disulfide 1-6
SMILES: CC(=O)NCCCC[C@H](NC(=O)[C@](C)(CCCCN)NC(=O)[C@H](Cc1ccc2ccccc2c1)NC(=O)[C@H](Cc1ccc(OCCN)cc1)NC(=O)[C@H]1NC(=O)[C@H](CCCNC(N)=O)NC(=O)[C@H](Cc2c[nH]c3c(C)cccc23)NC(=O)[C@H]([C@@H](C)O)NC(=O)[C@H](CC(N)=O)NC(=O)[C@@H](NC(C)=O)C(C)(C)SSC1(C)C)C(=O)N[C@@H](CC(N)=O)C(=O)N[C@@H](C(N)=O)[C@H](C)O
B16: Peptide of SEQ ID NO: 250 (peptide)
peptide: XNTXKXXXXKNV
modifications: Ac-[Pen]-NT-[W(7-Me)]-[Lys(Ac)]-[Pen]-Phe[4-(2-aminoethoxy)]-[2-Nal]-[a-MeLys]-[Lys(Ac)]-N-V-NH2; Pen-Pen disulfide
B17: Peptide of SEQ ID NO: 273 (peptide)
peptide: XNTXKXXXXEXX
modifications: Ac-[Pen]-N-T-[W(7-Me)]-[Lys(Ac)]-[Pen]-Phe[4-(2-aminoethoxy)]-[2-Nal]-[a-MeLys]-E-[bA]-[bA]-NH2; Pen-Pen disulfide
B18: Peptide of SEQ ID NO: 276 (peptide)
peptide: XNTXQXXXXKNX
modifications: Ac-[Pen]-N-T-[W(7-Me)]-Q-[Pen]-Phe[4-(2-aminoethoxy)]-[2-Nal]-[DiethylGly]-[Lys(Ac)]-N-[bA]-NH2; Pen-Pen disulfide
B19: Peptide of SEQ ID NO: 260 (peptide)
peptide: Ac-[Pen]NT[Trp(7-Me)][Cit][Pen][AEF][2Nal][αMeK]K(Ac)NS-NH2
modifications: disulfide 1-6
SMILES: CC(=O)NCCCC[C@H](NC(=O)[C@](C)(CCCCN)NC(=O)[C@H](Cc1ccc2ccccc2c1)NC(=O)[C@H](Cc1ccc(OCCN)cc1)NC(=O)[C@H]1NC(=O)[C@H](CCCNC(N)=O)NC(=O)[C@H](Cc2c[nH]c3c(C)cccc23)NC(=O)[C@H]([C@@H](C)O)NC(=O)[C@H](CC(N)=O)NC(=O)[C@@H](NC(C)=O)C(C)(C)SSC1(C)C)C(=O)N[C@@H](CC(N)=O)C(=O)N[C@@H](CO)C(N)=O
B20: Peptide of SEQ ID NO: 268 (peptide)
peptide: Ac-[Pen]NT[Trp(7-Me)][Cit][Pen][AEF][2Nal][αMeK]K(Ac)[βAla][βAla]-NH2
modifications: disulfide 1-6
SMILES: CC(=O)NCCCC[C@H](NC(=O)[C@](C)(CCCCN)NC(=O)[C@H](Cc1ccc2ccccc2c1)NC(=O)[C@H](Cc1ccc(OCCN)cc1)NC(=O)[C@H]1NC(=O)[C@H](CCCNC(N)=O)NC(=O)[C@H](Cc2c[nH]c3c(C)cccc23)NC(=O)[C@H]([C@@H](C)O)NC(=O)[C@H](CC(N)=O)NC(=O)[C@@H](NC(C)=O)C(C)(C)SSC1(C)C)C(=O)NCCC(=O)NCCC(N)=O
B21: Peptide of SEQ ID NO: 257 (peptide)
peptide: Ac-[Pen]NT[Trp(7-Me)][Cit][Pen][AEF][2Nal][αMeK]K(Ac)N[dF]-NH2
modifications: disulfide 1-6
SMILES: CC(=O)NCCCC[C@H](NC(=O)[C@](C)(CCCCN)NC(=O)[C@H](Cc1ccc2ccccc2c1)NC(=O)[C@H](Cc1ccc(OCCN)cc1)NC(=O)[C@H]1NC(=O)[C@H](CCCNC(N)=O)NC(=O)[C@H](Cc2c[nH]c3c(C)cccc23)NC(=O)[C@H]([C@@H](C)O)NC(=O)[C@H](CC(N)=O)NC(=O)[C@@H](NC(C)=O)C(C)(C)SSC1(C)C)C(=O)N[C@@H](CC(N)=O)C(=O)N[C@H](Cc1ccccc1)C(N)=O
B22: Peptide of SEQ ID NO: 279 (peptide)
peptide: XNTXQXXXXXXX
modifications: Ac-[Pen]-N-T-[W(7-Me)]-Q-[Pen]-Phe[4-(2-aminoethoxy)]-[2-Nal]-[a-MeLys]-[Cit]-[bA]-[bA]-NH2; Pen-Pen disulfide
B23: Peptide of SEQ ID NO: 270 (peptide)
peptide: XNTXKXXXXKXX
modifications: Ac-[Pen]-N-T-[W(7-Me)]-[Lys(Ac)]-[Pen]-Phe[4-(2-aminoethoxy)]-[2-Nal]-[a-MeLys]-[Lys(Ac)]-[bA]-[bA]-NH2; Pen-Pen disulfide
B24: Peptide of SEQ ID NO: 269 (peptide)
peptide: XNTXQXXXXKLX
modifications: Ac-[Pen]-N-T-[W(7-Me)]-Q-[Pen]-Phe[4-(2-aminoethoxy)]-[2-Nal]-[a-MeLys]-[Lys(Ac)]-L-[bA]-NH2; Pen-Pen disulfide

What follows are binders tested against T1, interleukin-23 receptor (IL-23R) (assay: cell-based or functional assay).

| pStat3 HTRF IC50 | Binder |
| --- | --- |
| 4.83 nM | B1 |
| 1.91 nM | B2 |
| 0.754 nM | Ac-[Pen]NT[Trp(7-Me)][Cit][Pen][AEF][2Nal][αMeK]K(Ac)N[dR]-NH2 (disulfide 1-6) [Peptide of SEQ ID NO: 256] |
| 2.78 nM | B3 |
| 2.17 nM | B4 |
| 0.484 nM | B5 |
| 0.639 nM | B6 |
| 2.5 nM | B7 |
| 0.506 nM | B8 |
| 0.996 nM | B9 |
| 0.639 nM | B10 |
| 0.849 nM | B11 |
| 3.65 nM | B12 |
| 1.44 nM | B13 |
| 7.13 nM | B14 |
| 0.603 nM | B15 |
| 1.82 nM | B16 |
| 2.69 nM | B17 |
| 0.564 nM | B18 |
| 0.699 nM | B19 |
| 3.24 nM | B20 |
| 3.88 nM | B21 |
| 5.97 nM | B22 |
| 4.43 nM | B23 |
| 10.1 nM | B24 |
